From patent publication US20080096187A1

What was measured:
Experiment in all cases: cell-based or functional assay
[1] = biological target: HIV-2 UC-1 envelope glycoprotein (HIV-2 UC1) (UniProt Q76638)
[2] = biological target: HIV-2 7312A envelope glycoprotein with substitutions 660 (K to A), 662 (N to D), 663 (S to K) and 665 (D to A) (HIV-2 isolate 7312A)
[3] = biological target: HIV-2 7312A envelope glycoprotein (HIV-2 isolate 7312A)
[4] = biological target: HIV-1 YU2 envelope glycoprotein (HIV-1 YU2) (UniProt P35961)
[5] = biological target: HIV-2 ST envelope glycoprotein (HIV-2 ST) (UniProt P20872)
[6] = biological target: HIV-2 7312A envelope glycoprotein with substitutions 675 (L to I) and 676 (A to T) (HIV-2 isolate 7312A)
[7] = biological target: HIV-2 7312A/Q422L envelope glycoprotein (HIV-2 isolate 7312A)
[8] = biological target: HIV-2 7312A/V434M envelope glycoprotein (HIV-2 isolate 7312A)
[9] = biological target: HIV-2 7312A/H419R envelope glycoprotein (HIV-2 isolate 7312A)

Substance	IC50 (neutralization) in the absence of sCD4 [1]	IC50 (neutralization) in the presence of sCD4 [1]	IC50 (neutralization) [2]	IC50 (neutralization) [3]	IC50 (neutralization) in the absence of sCD4 [3]	IC50 (neutralization) in the presence of sCD4 [3]	IC50 (neutralization) [4]	IC50 (neutralization) [1]	IC50 (neutralization) [5]	IC50 (neutralization) [6]	IC50 (neutralization) in the absence of sCD4 [7]	IC50 (neutralization) in the presence of sCD4 [7]	IC50 (neutralization) in the absence of sCD4 [8]	IC50 (neutralization) in the presence of sCD4 [8]	IC50 (neutralization) in the absence of sCD4 [9]	IC50 (neutralization) in the presence of sCD4 [9]
2F5 (antibody)	> 25 µg/mL	> 25 µg/mL	< 0.1 µg/mL	> 50 µg/mL	> 25 µg/mL	> 25 µg/mL	25 µg/mL									
2G12 (antibody)	> 25 µg/mL	> 25 µg/mL			> 25 µg/mL	> 25 µg/mL										
4E10 (antibody)				> 50 µg/mL			25 µg/mL	1.2 µg/mL	0.1 µg/mL	0.8 µg/mL						
A32 (antibody)	> 25 µg/mL	> 25 µg/mL			> 25 µg/mL	> 25 µg/mL										
E51 (antibody)	> 25 µg/mL	13 µg/mL			> 25 µg/mL	> 25 µg/mL					> 25 µg/mL	> 25 µg/mL	> 25 µg/mL	4 µg/mL	> 25 µg/mL	22 µg/mL
ED47 (antibody)	> 25 µg/mL	> 25 µg/mL			> 25 µg/mL	> 25 µg/mL					> 25 µg/mL	> 25 µg/mL	> 25 µg/mL	> 25 µg/mL	> 25 µg/mL	4.7 µg/mL
ED49 (antibody)	> 25 µg/mL	12 µg/mL			> 25 µg/mL	5.4 µg/mL					> 25 µg/mL	3 µg/mL	> 25 µg/mL	2.4 µg/mL	> 25 µg/mL	3.3 µg/mL
F105 (antibody)	> 25 µg/mL	> 25 µg/mL			> 25 µg/mL	> 25 µg/mL										
X5 (antibody)	> 25 µg/mL	> 25 µg/mL			> 25 µg/mL	> 25 µg/mL					> 25 µg/mL	> 25 µg/mL	> 25 µg/mL	2.5 µg/mL	> 25 µg/mL	> 25 µg/mL
b12 (antibody)	> 25 µg/mL	> 25 µg/mL		> 50 µg/mL	> 25 µg/mL	> 25 µg/mL	3 µg/mL									
